These results are taken from article PMC3094755, “The DNA-Binding Domain of Human PARP-1 Interacts with DNA Single-Strand Breaks as a Monomer through Its Second Zinc Finger”.

Details in all cases: protein: recombinant; label: fluorescein-dT at T8; single-chain dumbbell, 18 bp with central nick, two tetraloops
Data set [1] deals with PARP-1 F1+F2 (24-kDa DBD) (Homo sapiens, UniProt P09874 1-214). Kind of data set: fluorescence anisotropy; 0; 50 mM Tris-HCl pH 7.0, 150 uM ZnSO4, 4 mM DTT, 25 C; NaCl 0-200 mM (T2, as in cof; 10 nM DNA) or 25 mM (T3 mutants; 25 nM DNA).
PARP-1 F1+F2 (24-kDa DBD), sequence (P09874 1-214): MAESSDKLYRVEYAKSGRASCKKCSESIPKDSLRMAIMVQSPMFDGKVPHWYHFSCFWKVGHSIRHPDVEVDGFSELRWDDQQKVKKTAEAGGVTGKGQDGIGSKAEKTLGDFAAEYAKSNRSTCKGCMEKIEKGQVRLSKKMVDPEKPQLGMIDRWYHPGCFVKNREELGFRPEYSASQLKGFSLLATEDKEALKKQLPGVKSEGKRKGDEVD
Another data set concerns the target PARP-1 F2 K119I (Homo sapiens, UniProt P09874 103-214, K119I). Kind of data set: fluorescence anisotropy; 25 mM NaCl, one-site fit; 50 mM Tris-HCl pH 7.0, 150 uM ZnSO4, 4 mM DTT, 25 C; NaCl 0-200 mM (T2, as in cof; 10 nM DNA) or 25 mM (T3 mutants; 25 nM DNA). In general terms: In fluorescence polarisation assays a small probe gives low polarisation when free and higher when bound to something large.

For another data set, the target named is PARP-1 F2 K142I (Homo sapiens, UniProt P09874 103-214, K142I). The data set is described as above.
PARP-1 F2 K142I, sequence (P09874 103-214 K142I): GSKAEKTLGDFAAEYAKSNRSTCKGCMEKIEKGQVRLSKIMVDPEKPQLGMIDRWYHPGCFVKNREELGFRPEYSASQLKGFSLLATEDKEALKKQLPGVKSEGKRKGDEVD
For the next data set, the target named is PARP-1 F2 K141I/K142I (Homo sapiens, UniProt P09874 103-214, K141I;K142I). Described as above.
PARP-1 F2 K141I/K142I, sequence (P09874 103-214 K141I/K142I): as the sequence (P09874 103-214 K142I) above, with K39I counted along it
The target in another data set is PARP-1 F2 (Homo sapiens, UniProt P09874 103-214). The data set is described as above.
PARP-1 F2, sequence (P09874 103-214): as the sequence (P09874 103-214 K142I) above, with I40K counted along it
A further data set has as its target PARP-1 F2 K141I (Homo sapiens, UniProt P09874 103-214, K141I). Described as above.
Another data set deals with PARP-1 F2 K197I (Homo sapiens, UniProt P09874 103-214, K197I). Described as above.
PARP-1 F2 K197I, sequence (P09874 103-214 K197I): as the sequence (P09874 103-214 K142I) above, with I40K, K95I counted along it
Another data set deals with PARP-1 F2 K134I (Homo sapiens, UniProt P09874 103-214, K134I). The data set is described as above.
PARP-1 F2 K134I, sequence (P09874 103-214 K134I): as the sequence (P09874 103-214 K142I) above, with K32I, I40K counted along it
A further data set concerns the target PARP-1 F2 W157I (Homo sapiens, UniProt P09874 103-214, W157I). Described as above.
The next data set addresses PARP-1 F2 K131I (Homo sapiens, UniProt P09874 103-214, K131I). The data set is described as above.
The target of a further data set is PARP-1 F2 R138I (Homo sapiens, UniProt P09874 103-214, R138I). The description is as above.
PARP-1 F2 R138I, sequence (P09874 103-214 R138I): as the sequence (P09874 103-214 K142I) above, with R36I, I40K counted along it
For the next data set, the target named is PARP-1 F2 G135D (Homo sapiens, UniProt P09874 103-214, G135D). The data set is described as above.
PARP-1 F2 G135D, sequence (P09874 103-214 G135D): as the sequence (P09874 103-214 K142I) above, with G33D, I40K counted along it
A further data set has as its target PARP-1 F2 K131I/G135D (Homo sapiens, UniProt P09874 103-214, K131I;G135D). The data set is described as above.
For the next data set, the target named is PARP-1 F2 S120G (Homo sapiens, UniProt P09874 103-214, S120G). Described as above.
PARP-1 F2 S120G, sequence (P09874 103-214 S120G): as the sequence (P09874 103-214 K142I) above, with S18G, I40K counted along it

PARP-1 F2 K119I, sequence (P09874 103-214 K119I): as the sequence (P09874 103-214 K142I) above, with K17I, I40K counted along it
PARP-1 F2 K131I, sequence (P09874 103-214 K131I): as the sequence (P09874 103-214 K142I) above, with K29I, I40K counted along it
PARP-1 F2 K131I/G135D, sequence (P09874 103-214 K131I/G135D): as the sequence (P09874 103-214 K142I) above, with K29I, G33D, I40K counted along it
PARP-1 F2 K141I, sequence (P09874 103-214 K141I): as the sequence (P09874 103-214 K142I) above, with K39I, I40K counted along it
PARP-1 F2 W157I, sequence (P09874 103-214 W157I): as the sequence (P09874 103-214 K142I) above, with I40K, W55I counted along it

As usually defined, the Kd is a measure of binding affinity in units of concentration. Regarding CGGTCGATCGTAAGATCGACCGGCGCTGGAGCTTGCTCCAGCGC (structured_DNA, 5'-phosphate) [44-nt nicked dumbbell, 5'-phosphate, fluorescein-dT], the Kd in data set [1] stood at 5.75 nM; with PARP-1 F2 K119I, 4550 nM; with PARP-1 F2 K142I, 1180 nM; with PARP-1 F2 K141I/K142I it was 3930 nM; with PARP-1 F2, 343 nM; with PARP-1 F2 K141I, 1490 nM. In addition, the Kd amounted to 664 nM with PARP-1 F2 K197I; 3330 nM with PARP-1 F2 K134I; 4930 nM with PARP-1 F2 W157I; 1570 nM with PARP-1 F2 K131I; 19800 nM in the data set with PARP-1 F2 R138I; 1710 nM in the data set with PARP-1 F2 G135D. The Kd with PARP-1 F2 K131I/G135D amounted to 3750 nM; in the data set with PARP-1 F2 S120G, 2430 nM.
